Columns and labels:
human BiP [1] = target: T1, human BiP (Homo sapiens, UniProt P11021); assay: Competition ELISA: BiP binding to misfolded proteins under influence of crossbeta binding compounds; conditions: for Influence on interaction of BiP with misfolded proteins comprising crossbeta structure (summary in words): BiP binding without compound set to 100%
T1 construct: The human BiP gene except the signal peptide encoding region was obtained from Geneart (Germany); linker […]; made in house; host or cells: HEK 293E cells, transient transfection, PABC674 vector; secreted into the medium
Protocol: Binding of chaperones to immobilized (misfolded) protein ligands was determined using an enzyme linked immuno sorbent assay (ELISA) approach. For this purpose 50 μl/well of potential ligands at indicated concentrations or coat buffer only for control and background measurement purposes, were coated overnight at 4° C. or coated for 1 h at room temperature, with motion, in 50 mM NaHCO3 pH 9.6 (coat buffer). In general, ligands were coated at 5 μg/ml, unless stated otherwise. For example, BiP binding peptides 6BB# and oxLDL were coated at 50 μg/ml. Native haemoglobin (Sigma-Aldrich, H7379), albumin, IgIV Gammagard and ovalbumin controls were prepared from lyophilized stocks. The controls were prepared by dissolving lyophilized proteins at 1 mg/ml in PBS upon resuspending by pipetting, followed by a 30 minutes period at the roller device, at room temperature. The protein solutions were centrifuged for 10 minutes at 16,000*g and diluted in coat buffer. After coating the plates were washed at least three times with 50 mM Tris-HCl pH 7.3, 150 mM NaCl, 0.1% v/v Tween20, and blocked with Blocking reagent (Roche Diagnostics, Almere, The Netherlands; 11112589001), for 1 h at room temperature, with motion. Plates were washed three times and incubated in triplicate with indicated chaperone dilution series, at 50 μl/well, for 1 h at room temperature, with constant motion. For HSP90, 5 mM DTT is incorporated in the binding buffer (PBS/0.1% Tween20) to avoid unwanted disulfide bond formation of the HSP90. […] After four wash cycles, secondary antibodies were added to the wells when required, 50 μl/well, for 45′ at room temperature, with motion. RAMPO and SWARPO were used at 3000 times dilution. […] In a second experiment with more immobilized misfolded proteins and controls, the detection of bound HSP90 with the mix of two anti-HSP90 antibodies was achieved by mixing 1:1500 SWARPO with 1:3000 RAMPO. After 5 washes with wash buffer followed by two washes with PBS, binding of antibodies was assessed. Bound anti-FLAG-PO, peroxidase-conjugated rabbit anti-mouse immunoglobulins (RAMPO, P0260, DAKOCytomation, Glostrup, Denmark) or peroxidase-coupled swine anti-rabbit immunoglobulins (SWARPO, P0217, DAKOCytomation) was visualized with tetramethylbenzidine (TMB, #45.01.20,/#45.014.01, Biosource, Nivelles, Belgium). The reaction was stopped after 5 minutes with 1% H2SO4 in H2O. Plates were read at 450 nm. Triplicates were averaged and standard deviations calculated. Background signals obtained with buffer-coated wells were subtracted (binding of primary antibody to empty wells), as well as background signals obtained with ligand-coated wells in which the chaperones were omitted (binding of primary and secondary antibody to coated ligands). Subsequently, sub-optimal concentrations of chaperones for binding to misfolded protein ligands are determined, and these concentrations are used for inhibition studies.
In a subsequent study we analysed whether BiP interacts directly with the crossbeta structure, by performing ELISA binding studies with a fixed sub-optimal concentration of BiP and concentration series of crossbeta binding compounds. The results are depicted in FIGS. 12, 13 and Table 7. Binding of BiP without added crossbeta binding compounds was set to 100%.

human BiP [2] = target: T1, human BiP; assay: ELISA: binding of BiP in cell culture supernatant to immobilized misfolded proteins; conditions: undiluted supernatant of 293E cells overexpressing BiP; ligands coated at 5 μg/ml, Aβ 20 μg/ml
Protocol: Binding of BiP to Misfolded Proteins with Crossbeta Structure
Proteins at 5 μg/ml were coated for 1 h at room temperature with agitation, in Microlon high-binding ELISA plates (Greiner) in 50 mM NaHCO3 pH 9.6, except for Aβ that was coated at 20 μg/ml. Buffer was coated as negative control. A twofold dilutions series of cell culture supernatant of HEK 293E cells overexpressing BiP was also coated to the plate for anti-FLAG-tag antibody control purposes. Plates were washed and blocked with ½*Blocking reagent (Roche). Undiluted cell culture supernatant enriched with 0.1% Tween20 was added to the wells with immobilized protein ligands and incubated for 1 h at room temperature with agitation. Medium was discarded and the plate was washed with PBS with 0.1% v/v Tween20. Mouse monoclonal anti-FLAG-tag antibody (Sigma, A8592, anti-FLAG M2PO conjugate) was diluted 1000× in PBS/0.1% Tween20 and added to all wells, including those that are coated with cell culture supernatant. After a 1 h incubation at room temperature with agitation and after washing, wells were overlayed with 3000× diluted RAMPO (DAKOCytomation) in PBS/0.1% Tween20. After 30 minutes the plate was washed and bound peroxidase was visualised with tetramethylbenzidine (TMB, #45.103.20/#45.014.01, Biosource, Nivelles, Belgium). The reaction was stopped after 5 minutes with 10% H2SO4 in H2O. Plates were read at 450 nm.

[3] = fixed sub-optimal BiP concentration, 10 mM ε-amino caproic acid

T1 sequence (P11021 19-654): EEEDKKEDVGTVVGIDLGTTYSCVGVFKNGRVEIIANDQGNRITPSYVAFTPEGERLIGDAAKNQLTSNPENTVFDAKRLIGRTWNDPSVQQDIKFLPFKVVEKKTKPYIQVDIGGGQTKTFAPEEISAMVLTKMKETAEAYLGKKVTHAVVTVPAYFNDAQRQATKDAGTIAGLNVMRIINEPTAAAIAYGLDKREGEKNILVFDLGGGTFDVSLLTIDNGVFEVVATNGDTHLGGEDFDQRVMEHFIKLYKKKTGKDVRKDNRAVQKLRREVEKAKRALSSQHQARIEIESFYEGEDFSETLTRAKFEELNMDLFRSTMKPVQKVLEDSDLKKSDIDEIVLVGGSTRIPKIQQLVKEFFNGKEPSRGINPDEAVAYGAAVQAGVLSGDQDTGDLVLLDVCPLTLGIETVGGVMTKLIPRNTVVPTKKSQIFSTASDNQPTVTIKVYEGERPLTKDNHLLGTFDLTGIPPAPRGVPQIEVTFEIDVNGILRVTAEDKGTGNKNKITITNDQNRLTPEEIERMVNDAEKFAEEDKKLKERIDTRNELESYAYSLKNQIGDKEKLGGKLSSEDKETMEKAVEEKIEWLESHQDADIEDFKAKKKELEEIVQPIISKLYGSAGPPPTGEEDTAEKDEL

| Compound | Influence on interaction of BiP with misfolded proteins comprising crossbeta structure (summary in words) (human BiP [1]) | Binding of BiP to immobilized protein (ELISA) (human BiP [2]) | further results |
| --- | --- | --- | --- |
| Nc1c(/N=N/c2ccc(-c3ccc(/N=N/c4cc(S(=O)(=O)O)c5ccccc5c4N)cc3)cc2)cc(S(=O)(=O)O)c2ccccc12 [Congo red] | general inhibitors |  |  |
| Cc1ccc2c(c1)sc(-c1ccc(N(C)C)cc1)[n+]2C.[Cl-] [ThT, Thioflavin T] | can either potentiate BiP binding, or inhibit |  |  |
| BSA-AGE |  | binds |  |
| GSNKGAIIGLM [6BB6, Human Aβ (25-35)] |  |  | Influence of K2P tPA on interaction of BiP with misfolded protein (human BiP [1]; [3]): −; Influence of tPA on interaction of BiP with misfolded protein (human BiP [1]; [3]): ↓ (a ↓ sign refers to inhibited abolished binding of BiP); Influence of IgIV on interaction of BiP with misfolded protein (human BiP [1]; fixed sub-optimal BiP concentration, IgIV Octagam series): ↓ (a ↓ sign refers to inhibited abolished binding of BiP); Influence of Congo red on interaction of BiP with misfolded protein (human BiP [1]; fixed sub-optimal BiP concentration, concentration series of Congo red): ↓ (a ↓ sign refers to inhibited abolished binding of BiP); Influence of ThS on interaction of BiP with misfolded protein (human BiP [1]; fixed sub-optimal BiP concentration, concentration series of ThS): − |
| HbAGE: human haemoglobin glycated with glucose-6-phosphate for 75 weeks |  | binds |  |
| native BSA: non-modified bovine serum albumin control |  | not |  |
